Reference: IntAct's records for PubMed 26308901

B1: Somatic embryogenesis receptor kinase 2 (Arabidopsis thaliana (Mouse-ear cress)), Q9XIC7 (parent)
chain: MGRKKFEAFGFVCLISLLLLFNSLWLASSNMEGDALHSLRANLVDPNNVLQSWDPTLVNPCTWFHVTCNNENSVIRVDLGNADLSGQLVPQLGQLKNLQYLELYSNNITGPVPSDLGNLTNLVSLDLYLNSFTGPIPDSLGKLFKLRFLRLNNNSLTGPIPMSLTNIMTLQVLDLSNNRLSGSVPDNGSFSLFTPISFANNLDLCGPVTSRPCPGSPPFSPPPPFIPPPIVPTPGGYSATGAIAGGVAAGAALLFAAPALAFAWWRRRKPQEFFFDVPAEEDPEVHLGQLKRFSLRELQVATDSFSNKNILGRGGFGKVYKGRLADGTLVAVKRLKEERTPGGELQFQTEVEMISMAVHRNLLRLRGFCMTPTERLLVYPYMANGSVASCLRERPPSQLPLAWSIRQQIALGSARGLSYLHDHCDPKIIHRDVKAANILLDEEFEAVVGDFGLARLMDYKDTHVTTAVRGTIGHIAPEYLSTGKSSEKTDVFGYGIMLLELITGQRAFDLARLANDDDVMLLDWVKGLLKEKKLEMLVDPDLQSNYTEAEVEQLIQVALLCTQSSPMERPKMSEVVRMLEGDGLAEKWDEWQKVEVLRQEVELSSHPTSDWILDSTDNLHAMELSGPR
partner: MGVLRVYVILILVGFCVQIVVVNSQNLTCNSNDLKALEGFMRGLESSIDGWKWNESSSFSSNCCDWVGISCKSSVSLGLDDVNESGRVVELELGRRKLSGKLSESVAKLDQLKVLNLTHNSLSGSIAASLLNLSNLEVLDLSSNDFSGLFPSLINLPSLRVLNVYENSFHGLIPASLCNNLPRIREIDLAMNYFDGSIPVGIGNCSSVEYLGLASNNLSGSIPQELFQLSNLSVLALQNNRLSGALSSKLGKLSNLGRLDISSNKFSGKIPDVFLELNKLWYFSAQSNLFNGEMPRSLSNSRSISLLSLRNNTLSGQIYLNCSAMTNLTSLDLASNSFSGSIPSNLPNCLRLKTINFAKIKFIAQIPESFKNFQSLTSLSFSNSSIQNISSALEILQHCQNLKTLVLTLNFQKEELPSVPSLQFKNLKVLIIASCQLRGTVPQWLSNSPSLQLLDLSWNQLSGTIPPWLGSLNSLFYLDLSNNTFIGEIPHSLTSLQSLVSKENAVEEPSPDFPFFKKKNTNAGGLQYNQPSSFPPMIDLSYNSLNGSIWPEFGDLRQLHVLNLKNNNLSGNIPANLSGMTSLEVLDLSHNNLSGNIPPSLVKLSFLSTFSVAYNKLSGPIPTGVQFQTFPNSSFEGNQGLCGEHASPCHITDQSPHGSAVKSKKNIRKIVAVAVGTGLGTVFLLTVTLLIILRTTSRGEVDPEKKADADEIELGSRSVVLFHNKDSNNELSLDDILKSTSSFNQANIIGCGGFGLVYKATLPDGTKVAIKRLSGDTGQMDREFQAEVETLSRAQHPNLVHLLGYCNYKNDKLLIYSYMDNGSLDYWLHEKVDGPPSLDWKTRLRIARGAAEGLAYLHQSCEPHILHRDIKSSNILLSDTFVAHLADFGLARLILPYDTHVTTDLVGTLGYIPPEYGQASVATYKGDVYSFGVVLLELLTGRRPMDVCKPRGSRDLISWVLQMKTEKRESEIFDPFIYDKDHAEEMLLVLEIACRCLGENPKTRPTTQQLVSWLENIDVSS
B2: Phytosulfokine receptor 1 (Daucus carota), Q8LPB4 (parent)
chain: B1 partner
partner: B1 chain

Variants of: B1
Settings: with pskr1_dauca PSKR
For T62Y, the “effect of a mutation on the interaction” value was “disrupting interaction strength”.

Variants of: B2
Settings: with serk2_arath SERK2, Q9XIC7
In the case of T629Y, the “effect of a mutation on the interaction” value is reported as “disrupting interaction strength”.
S608Y was tested, and the “effect of a mutation on the interaction” value was “disrupting interaction strength”.
For F606D, the “effect of a mutation on the interaction” value was “disrupting interaction strength”.
